Assays:
Format in all cases: biochemical
[1] = Mephenytoin 4'-hydroxylase assay, recombinant human CYP2C yeast microsomes, R-enantiomer; settings: yeast microsomes + P450 reductase, phospholipid, cytochrome b5 2:1; 0.4 mM substrate; 37° C., 30 min; liver microsomes unfortified, phosphate buffer; means ± SE
Procedure: (§1) Purified or recombinant yeast microsomes (10-50 pmol) were preincubated with dilauroylphosphatidylcholine (15 μg per 50 pmol P450), P450 reductase (500 U per 50 mol P450), and human cytochrome b5 (2:1 molar ratio when added). The reconstituted mixture was preincubated for 5 min at 37° C., and then placed on ice. […] The mixture was then incubated at 37° with shaking for 3 min, and the reaction started with the addition of 2 mM NADPH and terminated after 30 min with an equal volume of methanol. […] Reaction volumes were generally 0.25 ml except when the volume of recombinant purified cytochrome or yeast microsomes was greater than 50 μl. In these cases, the volume was increased to 0.5 ml to limit the volume of glycerol from the purified preparation to <4% of the final volume.
(§2) At the end of the incubation period, the reactions were terminated with an equal volume of methanol. The incubation mixture was centrifuged at 10,000 g for 10 min and an aliquot assayed directly using HPLC without extraction. Samples with particularly low activity were concentrated by lyophilization and redissolved in a small volume of methanol:water (1:1) before assay. The HPLC system consisted of a reverse phase C18 (10 μm) Versapak, 300 mm×4.1 mm column (Altech Associates, Deerfield, Ill.) using an isocratic solvent consisting of methanol:water (45:55) with a flow rate was kept of 1 ml/min for 25 min.

[2] = Mephenytoin 4'-hydroxylase assay, recombinant human CYP2C yeast microsomes, S-enantiomer; settings: for R/S Ratio of mephenytoin 4'-hydroxylase activity: recombinant yeast microsomes (Table III); for Mephenytoin 4'-Hydroxylase Activity, S: yeast microsomes + P450 reductase, phospholipid, cytochrome b5 2:1, 37° C., 30 min, liver microsomes unfortified, phosphate buffer
Procedure: as §1, §2

[3] = Mephenytoin 4'-hydroxylase assay, purified recombinant P450s in reconstituted system, R-enantiomer; settings: triplicate, means ± SE, blank not subtracted
Procedure: as §1, §2

[4] = Mephenytoin 4'-hydroxylase assay, purified recombinant P450s in reconstituted system, S-enantiomer; settings: for R/S Ratio of mephenytoin 4'-hydroxylase activity: purified P450s (Table IV); for Mephenytoin 4'-Hydroxylase Activity, S: purified P450s, triplicate, means ± SE, blank not subtracted
Procedure: as §1, §2

[5] = Tolbutamide hydroxylase assay, recombinant human CYP2C yeast microsomes; settings: for Tolbutamide Hydroxylase Activity per mg protein: 1 mg yeast microsomal protein + P450 reductase, or 0.2 mg liver microsomal protein without reductase; for Tolbutamide Hydroxylase Activity per mg protein / Tolbutamide Hydroxylase Activity per nmol P450: means ± SE; for Tolbutamide Hydroxylase Activity per nmol P450: adjusted for P450 content
Procedure: Yeast microsomes (1 mg protein) were preincubated with 300 pmol hamster P450 reductase in 0.2 ml of the incubation buffer (below) for 3 min at 37° C. The reaction was then placed on ice and incubated in 0.2 ml of 50 mM HEPES buffer (pH 7.4) containing 1.5 mM MgCl2, 0.1 mM EDTA in a final volume of 1 ml and 1 mM sodium tolbutamide. The reaction was initiated with 0.5 mM NADPH. Human liver microsomes (0.22 mg protein) were incubated without reductase. Incubations with reconstituted recombinant P450s contained 50 pmol purified P450 enzyme, 150 pmol P450 reductase, and 15 μg dilauroylphosphatidylcholine, and were performed in 100 mM potassium phosphate buffer (pH 7.4). Reactions were terminated after 60 min at 37° C. by the addition of 50 μl of 4N HCl, followed by extraction with 3 ml of water-saturated ethyl acetate. […] The column eluate was monitored at 230 nm and rates of product formation were determined from standard curves prepared by adding varying amounts of 4-hydroxytolbutamide to incubations conducted without NADPH. […] Samples were analyzed in triplicate.

[6] = Tolbutamide hydroxylase assay, purified reconstituted P450s; settings: blank (22 ± 5) subtracted, means ± SE
Procedure: Tolbutamide hydroxylase activity was measured according to Knodell et al., J. Pharmacol. Exper. Ther. 241:1112-1119 (1987), with several modifications. Yeast microsomes (1 mg protein) were preincubated with 300 pmol hamster P450 reductase in 0.2 ml of the incubation buffer (below) for 3 min at 37° C. The reaction was then placed on ice and incubated in 0.2 ml of 50 mM HEPES buffer (pH 7.4) containing 1.5 mM MgCl2, 0.1 mM EDTA in a final volume of 1 ml and 1 mM sodium tolbutamide. The reaction was initiated with 0.5 mM NADPH. Human liver microsomes (0.22 mg protein) were incubated without reductase. Incubations with reconstituted recombinant P450s contained 50 pmol purified P450 enzyme, 150 pmol P450 reductase, and 15 μg dilauroylphosphatidylcholine, and were performed in 100 mM potassium phosphate buffer (pH 7.4). Reactions were terminated after 60 min at 37° C. by the addition of 50 μl of 4N HCl, followed by extraction with 3 ml of water-saturated ethyl acetate. The ethyl acetate extracts were dried under nitrogen at 40° C., the residue resolubilized in 200 μl methanol, and 4-hydroxytolbutamide then assayed using HPLC by injecting 50 μl of the solubilized extract onto a μBONDAPAK C18 column (4.6×300 mm) using 0.05% phosphoric acid, pH 2.6: acetonitrile (6:4, v/v) as the mobile phase with a flow rate of 1 ml/min. The column eluate was monitored at 230 nm and rates of product formation were determined from standard curves prepared by adding varying amounts of 4-hydroxytolbutamide to incubations conducted without NADPH. […] Samples were analyzed in triplicate.

B1: 2C19: human cytochrome P450 2C19 polypeptide, clone 11a, SEQ ID NO:1, expressed recombinantly in yeast (protein)
chain: MDPFVVLVLCLSCLLLLSIWRQSSGRGKLPPGPTPLPVIGNILQIDIKDVSKSLTNLSKIYGPVFTLYFGLERMVVLHGYEVVKEALIDLGEEFSGRGHFPLAERANRGFGIVFSNGKRWKEIRRFSLMTLRNFGMGKRSIEDRVQEEARCLVEELRKTKASPCDPTFILGCAPCNVICSIIFQKRFDYKDQQFLNLMEKLNENIRIVSTPWIQICNNFPTIIDYFPGTHNKLLKNLAFMESDILEKVKEHQESMDINNPRDFIDCFLIKMEKEKQNQQSEFTIENLVITAADLLGAGTETTSTTLRYALLLLLKHPEVTAKVQEEIERVIGRNRSPCMQDRGHMPYTDAVVHEVQRYIDLIPTSLPHAVTCDVKFRNYLIPKGTTILTSLTSVLHDNKEFPNPEMFDPRHFLDEGGNFKKSNYFMPFSAGKRICVGEGLARMELFLFLTFILQNFNLKSLIDPKDLDTTPVVNGFASVPPFYQLCFIPV
[1]
  Mephenytoin 4'-Hydroxylase Activity, R: 0.014 ± 0.02 nmol/min/nmol P450
[2]
  R/S Ratio of mephenytoin 4'-hydroxylase activity: 0.03
[2]; stereospecificity, yeast microsomes
  Rate of S-hydroxylation relative to R-hydroxylation of mephenytoin: at least 30 fold
[2]; 0.4 mM substrate, means ± SE
  Mephenytoin 4'-Hydroxylase Activity, S: ~ 5 nmol/min/nmol P450
[2]; 0.4 mM substrate, means ± SE, listed as 2C19 (11a)
  Mephenytoin 4'-Hydroxylase Activity, S: 4.6 ± 0.3 nmol/min/nmol P450
[3]
  Mephenytoin 4'-Hydroxylase Activity, R: 0.19 ± 0.04 nmol/min/nmol P450
[4]; fold higher than human liver microsomes
  S-mephenytoin 4'-hydroxylation turnover relative to human liver microsomes: at least 10 times
[4]
  R/S Ratio of mephenytoin 4'-hydroxylase activity: 0.03
[4]; reconstituted system
  Mephenytoin 4'-Hydroxylase Activity, S: 6.17 ± 0.24 nmol/min/nmol P450
[4]; purified, reconstituted system
  S-mephenytoin 4'-hydroxylation turnover relative to recombinant 2C9, 2C18 or 2C8: 50-100 times
[4]; vs literature value of Srivastava et al.
  S-mephenytoin 4'-hydroxylase turnover relative to P450MP purified from human liver: ~ 30 times
[5]
  Tolbutamide Hydroxylase Activity per mg protein: 18.4 ± 2.4 nmol/min/mg protein

B2: 2C18-Thr^385 (29c): recombinant 2C18 allelic variant 29c (Thr 385) in yeast microsomes; Table III does not state residue 2 (protein, UniProt P33260 26-490, looked up)
Cytochrome P450 2C18: RGRLPSGPTPLPIIGNILQLDVKDMSKSLTNFSKVYGPVFTVYFGLKPIVVLHGYEAVKEALIDHGEEFSGRGSFPVAEKVNKGLGILFSNGKRWKEIRRFCLMTLRNFGMGKRSIEDRVQEEARCLVEELRKTNASPCDPTFILGCAPCNVICSVIFHDRFDYKDQRFLNLMEKFNENLRILSSPWIQVCNNFPALIDYLPGSHNKIAENFAYIKSYVLERIKEHQESLDMNSARDFIDCFLIKMEQEKHNQQSEFTVESLIATVTDMFGAGTETTSTTLRYGLLLLLKYPEVTAKVQEEIECVVGRNRSPCMQDRSHMPYTDAVVHEIQRYIDLLPTNLPHAVTCDVKFKNYLIPKGTTIITSLTSVLHNDKEFPNPEMFDPGHFLDKSGNFKKSDYFMPFSAGKRMCMGEGLARMELFLFLTTILQNFNLKSQVDPKDIDITPIANAFGRVPPLYQLCFIPV
[1]
  Mephenytoin 4'-Hydroxylase Activity, R: 0.054 ± 0.003 nmol/min/nmol P450
[2]
  R/S Ratio of mephenytoin 4'-hydroxylase activity: 1.3
[2]; 0.4 mM substrate, means ± SE
  Mephenytoin 4'-Hydroxylase Activity, S: 0.042 ± 0.004 nmol/min/nmol P450
[2]; yeast microsomes without cytochrome b5, 0.4 mM substrate, means ± SE
  Mephenytoin 4'-Hydroxylase Activity, S, no b5: 0.034 ± 0.008 nmol/min/nmol P450

B3: 2C18-Asp^2 Thr^385 (29c-1a): recombinant human P450 2C18 allelic variant 29c with correct Asp at position 2, Thr at 385 (protein, UniProt P33260 26-490, looked up)
Cytochrome P450 2C18: B2 Cytochrome P450 2C18
[3]
  Mephenytoin 4'-Hydroxylase Activity, R: 0.147 ± 0.025 nmol/min/nmol P450
[4]
  R/S Ratio of mephenytoin 4'-hydroxylase activity: 1.3
[4]; reconstituted system
  Mephenytoin 4'-Hydroxylase Activity, S: 0.116 ± 0.010 nmol/min/nmol P450
[5]
  Tolbutamide Hydroxylase Activity per mg protein: 9.3 ± 0.7 nmol/min/mg protein
  Tolbutamide Hydroxylase Activity per nmol P450: 0.19 ± 0.02 nmol/min/nmol P450

B4: 2C8: recombinant human P450 2C8 (clones 7b and 7c, Thr^130 Ile^264 variant) expressed in yeast (protein, UniProt P10632 1-490, looked up)
Cytochrome P450 2C8: MEPFVVLVLCLSFMLLFSLWRQSCRRRKLPPGPTPLPIIGNMLQIDVKDICKSFTNFSKVYGPVFTVYFGMNPIVVFHGYEAVKEALIDNGEEFSGRGNSPISQRITKGLGIISSNGKRWKEIRRFSLTTLRNFGMGKRSIEDRVQEEAHCLVEELRKTKASPCDPTFILGCAPCNVICSVVFQKRFDYKDQNFLTLMKRFNENFRILNSPWIQVCNNFPLLIDCFPGTHNKVLKNVALTRSYIREKVKEHQASLDVNNPRDFIDCFLIKMEQEKDNQKSEFNIENLVGTVADLFVAGTETTSTTLRYGLLLLLKHPEVTAKVQEEIDHVIGRHRSPCMQDRSHMPYTDAVVHEIQRYSDLVPTGVPHAVTTDTKFRNYLIPKGTTIMALLTSVLHDDKEFPNPNIFDPGHFLDKNGNFKKSDYFMPFSAGKRICAGEGLARMELFLFLTTILQNFNLKSVDDLKNLNTTAVTKGIVSLPPSYQICFIPV
[1]
  Mephenytoin 4'-Hydroxylase Activity, R: 0.016 ± 0.001 nmol/min/nmol P450
[2]
  R/S Ratio of mephenytoin 4'-hydroxylase activity: 0.4
[2]; 0.4 mM substrate, means ± SE
  Mephenytoin 4'-Hydroxylase Activity, S: 0.037 ± 0.001 nmol/min/nmol P450
[3]
  Mephenytoin 4'-Hydroxylase Activity, R: 0.023 ± 0.004 nmol/min/nmol P450
[4]
  R/S Ratio of mephenytoin 4'-hydroxylase activity: 0.4
[4]; reconstituted system
  Mephenytoin 4'-Hydroxylase Activity, S: 0.057 ± 0.009 nmol/min/nmol P450
[6]
  Tolbutamide Hydroxylase Activity: 12 ± 4 pmol/min/nmol P450
[5]
  Tolbutamide Hydroxylase Activity per mg protein: 8.5 ± 0.2 nmol/min/mg protein
  Tolbutamide Hydroxylase Activity per nmol P450: 0.11 ± 0.003 nmol/min/nmol P450

B5: 2C8 Purified from Human Liver: cytochrome P450 2C8 purified from human liver microsomes (protein, UniProt P10632 1-490, looked up)
Cytochrome P450 2C8: B4 Cytochrome P450 2C8
[3]
  Mephenytoin 4'-Hydroxylase Activity, R: 0.051 ± 0.030 nmol/min/nmol P450
[4]
  R/S Ratio of mephenytoin 4'-hydroxylase activity: 1.6
[4]; reconstituted system
  Mephenytoin 4'-Hydroxylase Activity, S: 0.032 ± 0.003 nmol/min/nmol P450

B6: 2C9: recombinant human P450 2C9, allele not specified in the sentence (protein, UniProt P11712 1-490, looked up)
Cytochrome P450 2C9: MDSLVVLVLCLSCLLLLSLWRQSSGRGKLPPGPTPLPVIGNILQIGIKDISKSLTNLSKVYGPVFTLYFGLKPIVVLHGYEAVKEALIDLGEEFSGRGIFPLAERANRGFGIVFSNGKKWKEIRRFSLMTLRNFGMGKRSIEDRVQEEARCLVEELRKTKASPCDPTFILGCAPCNVICSIIFHKRFDYKDQQFLNLMEKLNENIKILSSPWIQICNNFSPIIDYFPGTHNKLLKNVAFMKSYILEKVKEHQESMDMNNPQDFIDCFLMKMEKEKHNQPSEFTIESLENTAVDLFGAGTETTSTTLRYALLLLLKHPEVTAKVQEEIERVIGRNRSPCMQDRSHMPYTDAVVHEVQRYIDLLPTSLPHAVTCDIKFRNYLIPKGTTILISLTSVLHDNKEFPNPEMFDPHHFLDEGGNFKKSKYFMPFSAGKRICVGEALAGMELFLFLTSILQNFNLKSLVDPKNLDTTPVVNGFASVPPFYQLCFIPV
[2]; 0.4 mM substrate, means ± SE
  Mephenytoin 4'-Hydroxylase Activity, S: 0.02 nmol/min/nmol P450
[4]; S-mephenytoin 4'-hydroxylation
  Turnover number of recombinant 2C9 relative to 2C9 purified from human liver: ~ 100 times

B7: 2C9-Ile^359 (65): recombinant human P450 2C9 allelic variant, clone 65 (protein, UniProt P11712 1-490, looked up)
Cytochrome P450 2C9: B6 Cytochrome P450 2C9
[1]
  Mephenytoin 4'-Hydroxylase Activity, R: 0.041 ± 0.005 nmol/min/nmol P450
[2]
  R/S Ratio of mephenytoin 4'-hydroxylase activity: 0.9
[2]; 0.4 mM substrate, means ± SE
  Mephenytoin 4'-Hydroxylase Activity, S: 0.043 ± 0.000 nmol/min/nmol P450
[3]
  Mephenytoin 4'-Hydroxylase Activity, R: 0.063 ± 0.003 nmol/min/nmol P450
[4]
  R/S Ratio of mephenytoin 4'-hydroxylase activity: 0.77
[4]; reconstituted system
  Mephenytoin 4'-Hydroxylase Activity, S: 0.081 ± 0.006 nmol/min/nmol P450
[6]
  Tolbutamide Hydroxylase Activity: 122 + 29 pmol/min/nmol P450
[5]
  Tolbutamide Hydroxylase Activity per mg protein: 169.8 ± 7.4 nmol/min/mg protein
  Tolbutamide Hydroxylase Activity per nmol P450: 3.4 ± 0.15 nmol/min/nmol P450
[5]; recombinant microsomes adjusted for P450 content
  Tolbutamide turnover number of Ile^359 allele relative to Leu^359 allele of 2C9: 3 fold

B8: 2C9 Purified from Human Liver: cytochrome P450 2C9 purified from human liver microsomes (protein, UniProt P11712 1-490, looked up)
Cytochrome P450 2C9: B6 Cytochrome P450 2C9
[3]
  Mephenytoin 4'-Hydroxylase Activity, R: 0.051 ± 0.007 nmol/min/nmol P450
[4]
  R/S Ratio of mephenytoin 4'-hydroxylase activity: 1.6
[4]; reconstituted system
  Mephenytoin 4'-Hydroxylase Activity, S: 0.033 ± 0.001 nmol/min/nmol P450
[6]
  Tolbutamide Hydroxylase Activity: 109 ± 16 pmol/min/nmol P450
